Data on 1 molecule can be found in patent CN108299557A (HANGZHOU HANSI BIOMEDICAL CO LTD, dated 2018).

Assay [1] addresses T1, PD-1-hIgGFc抗原 (UniProt Q15116 25-167, limits assumed).
T1 construct: not shown: human IgG Fc
The experiment in a line: competition ELISA, PD-1-hIgGFc coated, competitor PDL1-mIgG2aFc 0.6 ug/ml, HRP anti-mouse IgG. (In general: An ELISA detects its analyte on a solid surface through an enzyme-linked reagent.)

Assay [2] has as its target T2, PD-1-his抗原 (UniProt Q15116 25-167, limits assumed).
T2 construct: not shown: his tag
Briefly: binding ELISA, PD-1-his coated, HRP anti-human IgG.

Assay [3] has as its target T1, PD-1-hIgGFc抗原. Briefly: competition ELISA, PD-1-hIgGFc coated, competitor PDL2-his tag 1.0 ug/ml, HRP anti-his tag.

T1 sequence (Q15116 25-167 limits assumed): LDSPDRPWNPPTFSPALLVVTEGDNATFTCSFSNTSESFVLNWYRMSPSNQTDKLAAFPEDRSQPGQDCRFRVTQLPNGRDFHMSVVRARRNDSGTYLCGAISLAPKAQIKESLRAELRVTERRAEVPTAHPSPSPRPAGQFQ
T2 sequence (Q15116 25-167 limits assumed): as above

B1: 人源化抗体H8L2 (抗PD-1的IgG类抗体变体) (antibody)
heavy: EVQLVQSGGGLVQPGGSLKLSCAASGFTFSSYGMSWVRQAPGKGLDWVATISGGGRDTYYPDSVKGRFTISRDNSKNNLYLQMNSLRAEDTALYYCARQKGEAWFAYWGQGTLVTVSSASTKGPSVFPLAPCSRSTSESTAALGCLVKDYFPEPVTVSWNSGALTSGVHTFPAVLQSSGLYSLSSVVTVPSSSLGTKTYTCNVDHKPSNTKVDKRVESKYGPPCPPCPAPEFLGGPSVFLFPPKPKDTLMITRTPEVTCVVVDVSQEDPEVQFNWYVDGVEVHNAKTKPREEQFNSTYRVVSVLTPLHQDWLNGKEYKCKVSNKGLPSSIEKTISKAKGQPREPQVYTLPPSQEEMTKNQVSLTCLVKGFYPSDIAVEWESNGQPENNYKTTPPVLDSDGSFFLYSRLTVDKSRWQEGNVFSCSVMHEALHAHYTQKSLSLSLGK
light: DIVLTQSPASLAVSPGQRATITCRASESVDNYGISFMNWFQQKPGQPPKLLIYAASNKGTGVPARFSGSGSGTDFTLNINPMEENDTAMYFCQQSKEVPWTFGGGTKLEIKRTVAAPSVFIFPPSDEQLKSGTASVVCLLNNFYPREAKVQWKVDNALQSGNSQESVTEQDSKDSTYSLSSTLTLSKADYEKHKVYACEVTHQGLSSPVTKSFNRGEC
notes: ACC CCC CTG; CAC GCC CAC) confirms; The constant region looks like IgG4; also called 18A10 H8L2; H8L2突变体
Consider B1, for which the EC50 stood at 474 pM in assay [1], 40 pM in assay [2] and 1830 pM in assay [3].

For orientation: EC50 means the concentration giving half of the maximal effect.
